In patent EP2386565A2, “Compounds and methods to inhibit or augment an inflammatory response” (Cambridge Enterprise Ltd., priority 1999, dated 2000):
Values joined by “and” are separate entries in the source; they are usually repeats but may differ in a detail not shown here. Equal values may be shown once.

Columns and labels:
[1] = target: chemokine receptors on THP-1 cells; assay: binding to chemokine receptors on THP-1 cells; given as association constant
[2] = target: CCR5 (human) (UniProt P51681); assay: 12-point Scatchard analysis, 0.03 nM 125I-RANTES on HOS CCR5 cells and parental line, 4°C, 2 hours
CCR5 (human), sequence (P51681 whole entry): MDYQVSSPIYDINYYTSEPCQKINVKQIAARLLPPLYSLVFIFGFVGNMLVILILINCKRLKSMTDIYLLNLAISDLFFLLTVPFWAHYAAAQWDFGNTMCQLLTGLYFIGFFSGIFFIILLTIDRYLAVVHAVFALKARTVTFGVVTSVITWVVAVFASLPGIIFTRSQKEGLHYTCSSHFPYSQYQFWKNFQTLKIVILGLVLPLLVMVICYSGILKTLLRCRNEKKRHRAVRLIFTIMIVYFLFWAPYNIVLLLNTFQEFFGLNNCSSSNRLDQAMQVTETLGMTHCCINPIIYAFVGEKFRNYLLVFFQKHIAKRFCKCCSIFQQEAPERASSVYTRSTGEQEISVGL

[3] = target: T1, Duffy Antigen Receptor for Chemokines (DARC) (human) (UniProt Q16570); assay: footnote c of Table 6; given as affinity constant
T1 sequence (looked up): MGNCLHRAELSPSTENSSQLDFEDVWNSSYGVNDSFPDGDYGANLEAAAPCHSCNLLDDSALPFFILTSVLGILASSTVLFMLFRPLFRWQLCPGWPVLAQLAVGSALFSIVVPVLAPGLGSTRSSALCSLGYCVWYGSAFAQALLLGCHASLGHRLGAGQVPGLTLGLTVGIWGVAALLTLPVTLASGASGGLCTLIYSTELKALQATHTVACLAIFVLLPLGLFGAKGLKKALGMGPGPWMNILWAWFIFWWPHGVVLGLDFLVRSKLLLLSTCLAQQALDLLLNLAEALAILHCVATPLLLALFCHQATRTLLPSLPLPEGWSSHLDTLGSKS

[4] = target: chemokine receptors on THP-1 cells; assay: 100 µM biotinylated peptide on THP-1 cells, alone minus excess unlabeled peptide
[5] = target: chemokine receptors on the surface of Jurkat cells; assay: 100 µM biotinylated peptide on Jurkat cells (10^6 per reaction), 4°C, streptavidin-peroxidase/TMB
[6] = target: chemokine receptors on the surface of Jurkat cells; assay: 100 µM biotinylated peptide on Jurkat cells with 100-fold excess of the same unlabeled peptide
[7] = target: chemokine receptors on the surface of Jurkat cells; assay: 100 µM biotinylated peptide on Jurkat cells, alone minus excess unlabeled peptide
[8] = target: chemokine receptors on THP-1 cells; assay: 100 µM biotinylated peptide on THP-1 cells (4 x 10^5 per reaction), 4°C, streptavidin-peroxidase/TMB
[9] = target: chemokine receptors on THP-1 cells; assay: 100 µM biotinylated peptide on THP-1 cells with 100-fold excess of the same unlabeled peptide
[10] = target: chemokine receptors on the surface of Jurkat cells; assay: biotinylated peptide on cells, streptavidin-peroxidase

KQK (peptide) was tested, and the Kd [1] was 500 nM and 1000 nM.

Work on “RANTES (from UniProt P13236 24-92) (ligand)” yielded a Kd [2] of 1 nM.

Substance WVQ (peptide) has a Kd [3] of 2000 nM.

Substance gp120:V3(BaL) (peptide) has a ΔA450nm, specific binding [4] of 0.535 A450, a ΔA450nm, alone [5] of 0.167 A450 and a ΔA450nm, +100-fold excess unlabeled peptide [6] of 0.168 A450. The ΔA450nm, specific binding [7] was less than 0 A450, the ΔA450nm, alone [8] was 0.642 A450 and the ΔA450nm, +100-fold excess unlabeled peptide [9] was 0.107 A450.

For gp120:V3(IIIb) (peptide), the ΔA450nm, specific binding [4] was 0.137 A450, the ΔA450nm, alone [5] was 0.878 A450 and the ΔA450nm, +100-fold excess unlabeled peptide [6] was 0.189 A450. It also gave a fold specific binding to Jurkat cells against THP-1 cells [10] of 5 fold, a ΔA450nm, specific binding [7] of 0.689 A450 and a ΔA450nm, alone [8] of 0.268 A450. It also gave a ΔA450nm, +100-fold excess unlabeled peptide [9] of 0.131 A450.
